Patent US20190055293

Tested on: insulin

Substance | insulin disulfide reductase activity (turbidity, optical density at A595 nm)
Thioredoxin protein | The addition of RdCVF (LF) or Trx1 resulted in an increase in optical density at A595 nm
purified RdCVF(LF) protein (human rod-derived cone viability factor, long form) | The addition of RdCVF (LF) or Trx1 resulted in an increase in optical density at A595 nm
